The source of these data is patent US20150140022A1 (FRAUNHOFER GESELLSCHAFT ZUR FOERDERUNG DER ANGEWANDTEN …, published 2015).

Assay [1] has as its target T1, CD30 (human, UniProt P28908 19-595).
T1 construct: whole, on cells; Endogenous antigen on L540 cells
T1 sequence (looked up): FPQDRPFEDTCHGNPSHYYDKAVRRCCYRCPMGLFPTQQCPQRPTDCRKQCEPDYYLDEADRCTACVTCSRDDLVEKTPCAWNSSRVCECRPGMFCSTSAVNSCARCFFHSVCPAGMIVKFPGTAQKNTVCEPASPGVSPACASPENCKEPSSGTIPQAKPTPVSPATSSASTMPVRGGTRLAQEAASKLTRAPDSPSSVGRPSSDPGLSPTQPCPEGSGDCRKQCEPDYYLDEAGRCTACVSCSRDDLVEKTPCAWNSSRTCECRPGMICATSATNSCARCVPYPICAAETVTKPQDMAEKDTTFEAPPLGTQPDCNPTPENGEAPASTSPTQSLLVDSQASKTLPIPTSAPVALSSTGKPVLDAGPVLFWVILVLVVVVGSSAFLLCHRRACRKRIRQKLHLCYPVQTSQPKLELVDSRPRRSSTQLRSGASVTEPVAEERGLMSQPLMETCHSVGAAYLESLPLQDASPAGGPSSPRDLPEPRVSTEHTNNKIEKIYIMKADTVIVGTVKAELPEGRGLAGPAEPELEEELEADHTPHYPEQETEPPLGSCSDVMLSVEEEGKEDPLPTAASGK
Description: flow cytometry on L540 cells (lacking EGFR but expressing CD30), anti-His Alexa 488 detection.

In assay [2] the target is T1, CD30. Description: flow cytometry on L540 cells (CD30+, EGFR-), direct fluorescence. As for the experimental part:
Flow cytometry analysis was carried out after incubating 4×10⁵ cells with each fusion protein for 20 min at […] in PBS. […] As a control, scFv-Ki4-SNAP was labeled with BG-VistaGreen (black curve) and its binding activity was tested against A431, L540 and CHO-K1 cells (filled gray curves). […] As a control, scFv-Ki4-SNAP labeled with BG-Ce6 (black curve) was tested against A431, L540 and CHO-K1 cells (filled gray curves).
The binding efficiency of the labeled and unlabeled fusion proteins was determined by flow cytometry using a FACSCalibur (Becton & Dickinson, Heidelberg, Germany) and CellQuest software. […] Approximately 4×10⁵ cells were incubated in 200 μL PBS containing 0.5 μg of labeled protein for 20 min on ice. The cells were then washed twice with 1.8 mL PBS in a conventional cell washer and analyzed by flow cytometry.
(In flow cytometry, cells or beads pass a laser one at a time.)

B1: scFv-425-SNAP (scFv)
scFv: MAQVQLQQSGAELVKPGASVKLSCKASGYTFTSHWMHWVKQRAGQGLEWIGEFNPSNGRTNYNEKFKSKATLTVDKSSSTAYMQLSSLTSEDSAVYYCASRDYDYDGRYFDYWGQGTTVTVSSGGGGSGGGGSGGGGSDIELTQSPAIMSASPGEKVTMTCSASSSVTYMYWYQQKPGSSPRLLIYDTSNLASGVPVRFSGSGSGTSYSLTISRMEAEDAATYYCQQWSSHIFTFGSGTELEIKRHHHHHH
notes: Secreted from HEK-293T cells by an Ig kappa leader and purified by its His6 tag; not shown: SNAP-tag (hAGTm, modified human O6-alkylguanine-DNA alkyltransferase, 20 kDa)
As for B1, the binding result in assay [1] is “no binding (tested: 0.5 µg/ml)”.

B2: scFv-425-SNAP-VistaGreen (scFv)
scFv: MAQVQLQQSGAELVKPGASVKLSCKASGYTFTSHWMHWVKQRAGQGLEWIGEFNPSNGRTNYNEKFKSKATLTVDKSSSTAYMQLSSLTSEDSAVYYCASRDYDYDGRYFDYWGQGTTVTVSSGGGGSGGGGSGGGGSDIELTQSPAIMSASPGEKVTMTCSASSSVTYMYWYQQKPGSSPRLLIYDTSNLASGVPVRFSGSGSGTSYSLTISRMEAEDAATYYCQQWSSHIFTFGSGTELEIKRHHHHHH
modifications: BG-Vista Green dye covalently coupled to the active site of the SNAP-tag
notes: not shown: SNAP-tag (hAGTm)
For the molecule B2, in assay [2], the binding result is listed as “no binding (tested: 0.5 µg of labeled protein in 200 µL)”.

B3: scFv-425-SNAP-Ce6 (scFv)
scFv: MAQVQLQQSGAELVKPGASVKLSCKASGYTFTSHWMHWVKQRAGQGLEWIGEFNPSNGRTNYNEKFKSKATLTVDKSSSTAYMQLSSLTSEDSAVYYCASRDYDYDGRYFDYWGQGTTVTVSSGGGGSGGGGSGGGGSDIELTQSPAIMSASPGEKVTMTCSASSSVTYMYWYQQKPGSSPRLLIYDTSNLASGVPVRFSGSGSGTSYSLTISRMEAEDAATYYCQQWSSHIFTFGSGTELEIKRHHHHHH
modifications: chlorin e6 through a benzyl-PEG24 linker (BG-PEG24-Ce6) covalently coupled to the active site of the SNAP-tag
notes: not shown: SNAP-tag (hAGTm)
Take B3: the binding result in assay [2] is reported as “no binding (tested: 0.5 µg of labeled protein in 200 µL)”.
